Source: publication doi:10.1101/713933

Target: portal protein of bacteriophage P23-45 (in situ, in the procapsid) (bacteriophage P23-45 (Thermus thermophilus phage))
Assay: cryo-EM structure

Substance: portal protein of bacteriophage P23-45 (in situ, in the procapsid) (natural protein)
- stoichiometry N: 12 subunits
